Experimental findings from US20260250399A1 (VIRIDIAN THERAPEUTICS, published 2026) are described below.

Test [1] addresses T1, IGF-1R on cells (A549 human lung adenocarcinoma cells; primary human ocular choroid fibroblasts, HOCF) (human, UniProt P08069 31-1367).
T1 construct: whole, on cells; the same molecule is used there; also called IGFR 1; IFG1R
In words: flow cytometry on A549 cells, binding dose response curve. The protocol: (§1) Cell binding: A549 human lung adenocarcinoma cells or primary human ocular choroid fibroblasts (HOCF) were incubated with varying concentrations of VRDN-5000 or teprotumumab. A single dose 50 nM IgG1 isotype control was used as negative control. Unbound antibody was removed by washing, and the cells were incubated with an Alexa Fluor 488-goat anti-human antibody and a cell impermeable dye to gate live cells. The median fluorescence intensity (MFI) of viable cells was measured by flow cytometry and the data were analyzed using FlowJo software. Dose curves were fitted using a non-linear regression model; log (agonist) vs response-variable slope (four parameters).
VRDN-5000 Binds With High Affinity To IGF-1R On A549 Cells. As illustrated in FIG. 3A-C, VRDN-5000 binding to A549 cells was assessed by flow cytometry and found to have similar binding distribution as teprotumumab at three different concentrations.

Test [2] has as its target T1, IGF-1R on cells (A549 human lung …). In words: cell-based or functional assay.
The target is the same in test [3]. In words: flow cytometry on HOCF cells, binding dose response curve. The method, then:
as §1
FIG. 5A-B illustrate VRDN-5000 binding to HOCF cells, which was assessed by flow cytometry and found to have largely similar binding as teprotumumab at three different concentrations.

T1 sequence (P08069 31-1367): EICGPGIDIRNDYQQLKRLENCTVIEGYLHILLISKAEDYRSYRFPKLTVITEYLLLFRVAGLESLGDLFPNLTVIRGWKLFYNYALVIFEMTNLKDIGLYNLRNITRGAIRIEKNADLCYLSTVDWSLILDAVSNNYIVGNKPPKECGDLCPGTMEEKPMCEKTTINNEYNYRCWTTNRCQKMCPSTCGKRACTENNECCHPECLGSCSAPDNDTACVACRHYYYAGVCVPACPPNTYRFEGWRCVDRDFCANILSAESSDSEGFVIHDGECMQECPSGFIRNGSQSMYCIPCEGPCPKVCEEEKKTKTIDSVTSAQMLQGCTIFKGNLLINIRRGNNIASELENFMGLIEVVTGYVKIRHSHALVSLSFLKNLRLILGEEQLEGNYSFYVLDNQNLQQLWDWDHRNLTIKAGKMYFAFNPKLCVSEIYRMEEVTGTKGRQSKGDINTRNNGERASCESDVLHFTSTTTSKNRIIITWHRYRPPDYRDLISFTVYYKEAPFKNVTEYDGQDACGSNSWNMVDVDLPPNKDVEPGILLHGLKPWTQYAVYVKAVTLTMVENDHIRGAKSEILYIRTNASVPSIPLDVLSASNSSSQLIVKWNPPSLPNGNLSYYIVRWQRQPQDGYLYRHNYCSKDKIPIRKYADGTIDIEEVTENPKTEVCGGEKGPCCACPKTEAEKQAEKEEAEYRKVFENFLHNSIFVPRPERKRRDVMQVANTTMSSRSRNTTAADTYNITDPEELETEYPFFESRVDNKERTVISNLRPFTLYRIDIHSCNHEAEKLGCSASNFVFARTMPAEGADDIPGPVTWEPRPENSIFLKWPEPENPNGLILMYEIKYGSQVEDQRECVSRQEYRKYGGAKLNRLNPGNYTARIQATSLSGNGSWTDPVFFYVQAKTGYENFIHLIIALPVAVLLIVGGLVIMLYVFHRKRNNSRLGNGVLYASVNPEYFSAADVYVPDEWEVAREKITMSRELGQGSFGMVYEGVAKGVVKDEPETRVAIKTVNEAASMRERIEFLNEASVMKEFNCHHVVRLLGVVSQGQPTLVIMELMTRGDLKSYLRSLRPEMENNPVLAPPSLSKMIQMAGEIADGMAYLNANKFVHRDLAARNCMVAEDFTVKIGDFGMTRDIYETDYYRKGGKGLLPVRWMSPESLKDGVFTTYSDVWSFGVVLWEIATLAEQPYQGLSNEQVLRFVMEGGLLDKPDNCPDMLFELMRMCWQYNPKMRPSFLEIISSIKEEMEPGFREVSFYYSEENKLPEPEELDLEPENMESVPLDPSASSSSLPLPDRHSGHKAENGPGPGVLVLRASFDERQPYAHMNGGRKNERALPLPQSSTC

B1: VRDN-5000 (antibody, human IgG1, kappa)
heavy: not shown
light: DVVMTQTPLSLPVSLGDPASISCRSSQSIVHSNVNTYLEWYLQKPGQSPRLLIYKVSNRFSGVPDRFSGSGAGTDFTLRISRVEAEDLGIYYCFQGSHVPPTFGGGTKLEIKRTVAAPSVFIFPPSDEQLKSGTASVVCLLNNFYPREAKVQWKVDNALQSGNSQESVTEQDSKDSTYSLSSTLTLSKADYEKHKVYACEVTHQGLSSPVTKSFNRGEC
notes: neither was used; also called VRDN-001
With B1, the figures for the EC50 in test [1] and in test [3] were 0.1 nM and 0.4 nM, respectively. In addition, the “IC50 of IGF-1 stimulated receptor phosphorylation on A549 cells (pIGF-1R ELISA)” value in test [2] came out at 90 pM. The “IC50 of IGF-1 stimulated receptor phosphorylation on HOCF cells (pIGF-1R ELISA)” value in test [2] came out at 90 pM.
